The values that follow come from PMC6471365 (Pathogens, 2019).

The target in data set [1] is Recombinant SSL1 of S. aureus strain MW2 (allele type 1) (Staphylococcus aureus strain MW2).
In data set [2] the target is Recombinant SSL1 of S. aureus ocular isolate 295.236 (allele type 2) (Staphylococcus aureus isolate 295.236).
Data set [3] addresses Recombinant SSL1 of S. aureus strain Newman (allele type 3) with a C-terminal 6-His tag (Staphylococcus aureus strain Newman).
Data set [4] concerns the molecule itself. In words: gelatin zymography with SDS compared with reduced, denaturing SDS-PAGE.

Usually stoichiometry N stands for the number of molecules, sites or subunits per partner or assembly. Take “Recombinant SSL1 of S. aureus strain MW2 (allele type 1) (from UniProt A0A0H3KAV3 31-226) (natural protein)”: the stoichiometry N in data set [1] came out at 2.

Turning to “Recombinant SSL1 of S. aureus ocular isolate 295.236 (allele type 2) (from UniProt A0A0H3KAV3 31-226) (natural protein)”, the stoichiometry N in data set [2] turned out to be 2.

As to “Recombinant SSL1 of S. aureus strain Newman (allele type 3) with a C-terminal 6-His tag (from UniProt A0A0H3KAV3 31-226) (natural protein)”, the stoichiometry N in data set [3] is 2.

B1: Staphylococcus aureus superantigen-like protein SSL1 of strain Newman, native secreted protein (natural protein)
chain: KAEVKQQSESELKHYYNKPILERKNVTGFKYTDEGKHYLEVTVGQQHSRITLLGSDKDKFKDGENSNIDVFILREGDSRQATNYSIGGVTKSNSVQYIDYINTPILEIKKDNEDVLKDFYYISKEDISLKELDYRLRERAIKQHGLYSNGLKQGQITITMNDGTTHTIDLSQKLEKERMGESIDGTKINKILVEMK
notes: also called the toxin; the protease
On to B1, for which the “stoichiometry N” value in data set [4] was 2.
